Source: patent US20260274985A1 (MYTHIC THERAPEUTICS, published 2026)

T1: Human TROP2 Protein, His Tag (Acro Biosystems) (human, UniProt P09758 27-274)
T1 construct: Bought antigen used at 50 nM in the Octet screen; also called TACSTD2; not shown: His tag
T1 sequence (looked up): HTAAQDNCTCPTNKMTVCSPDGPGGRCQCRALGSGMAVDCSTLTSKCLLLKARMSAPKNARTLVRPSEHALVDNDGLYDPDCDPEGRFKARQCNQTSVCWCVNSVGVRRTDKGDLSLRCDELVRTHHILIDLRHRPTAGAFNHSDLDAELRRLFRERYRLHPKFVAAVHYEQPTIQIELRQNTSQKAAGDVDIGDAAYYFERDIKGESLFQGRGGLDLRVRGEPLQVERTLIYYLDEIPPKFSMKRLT

T2: Human TROP2 Protein, His Tag (human, UniProt P09758 27-274)
T2 construct: Bought protein; also called TACSTD2; not shown: His tag
T2 sequence (looked up): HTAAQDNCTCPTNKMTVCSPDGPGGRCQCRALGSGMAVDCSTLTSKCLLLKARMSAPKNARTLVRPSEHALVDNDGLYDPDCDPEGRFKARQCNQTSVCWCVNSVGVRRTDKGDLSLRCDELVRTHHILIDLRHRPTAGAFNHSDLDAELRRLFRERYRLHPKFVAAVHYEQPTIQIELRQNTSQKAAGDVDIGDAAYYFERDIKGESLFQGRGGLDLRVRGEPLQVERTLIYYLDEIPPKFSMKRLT


Key:
[1] = target: T1, Human TROP2 Protein, His Tag (Acro …); assay: BLI (Octet) [2/2]
Experimental: (§1) After allowing for four days of protein expression, cell culture supernatants were collected, quantified by SDS-PAGE analysis (DNS), and the pH dependence of the variant was evaluated using biolayer interferometry (BLI) on an Octet RED 96e instrument. Briefly, cell culture supernatants were diluted based on qualitative expression level of the variant determined by visual examination of SDS-PAGE gels, 5 μL of cell culture supernatant was diluted into 195 μL of 1×PBST, pH 7.4 for high expressors, 25 μL of cell culture supernatant was diluted into 175 μL of 1×PBST, pH 7.4 for medium expressors and 100 μL of cell culture supernatant was diluted into 100 μL of 1×PBST, pH 7.4 for low expressors for loading onto the sensor tips. The resulting diluted supernatants were then captured on an anti-human Fc sensor (Forte Bio). A baseline was established using 1×PBST (50 mM Potassium Phosphate Buffer+150 mM NaCl+0.05% Tween 20) pH 7.4, and the sensor was associated with 50 nM of TROP2 (Human TROP2 Protein, His Tag, Acro Biosystems) in 1×PBST pH 7.4 for 120 sec to generate an association curve. In the dissociation phase, the antibody-antigen complex on the sensor was exposed to 1×PBST pH 7.4 or pH 5.4, for 300 sec. Association and dissociation phase curves were examined for the starting ABPC antibody (with no substitutions) and each corresponding antibody variant at pH 5.4 and pH 7.4 to inform on two criteria: a) enhanced dissociation (i.e., higher koff values) at pH 5.4 due to histidine or alanine substitution compared to the starting ABPC, (with no substitutions), and b) reduced dissociation at pH 7.4 (i.e., lower koff values) compared to pH 5.4 in the antibody variant itself and with the starting ABPC (with no substitutions). […] It was also noted that while some mutations obliterated TROP2 binding, others were tolerated with little or n change in TROP2 binding kinetics.

[2] = target: T2, Human TROP2 Protein, His Tag; assay: BLI (Octet) [2/2]
Experimental: as §1

binding result [1]	binding result [2]	Binder
	no binding (tested: 50 nM)	MYT11702 (antibody, V domains shown, IgG from supernatant; His at LCV position 96; also called datopotamab variant L3 08) VH: QVQLVQSGAEVKKPGASVKVSCKASGYTFTTAGMQWVRQAPGQGLEWMGWINTHSGVPKYAEDFKGRVTISADTSTSTAYLQLSSLKSEDTAVYYCARSGFGSSYWYFDVWGQGTLVTVSS VL: DIQMTQSPSSLSASVGDRVTITCKASQDVSTAVAWYQQKPGKAPKLLIYSASYRYTGVPSRFSGSGSGTDFTLTISSLQPEDFAVYYCQQHYITPHTFGQGTKLEIK
	no binding (tested: 50 nM)	MYT11703 (antibody, V domains shown, IgG from supernatant; His at LCV position 97; also called datopotamab variant L3 09) VH: QVQLVQSGAEVKKPGASVKVSCKASGYTFTTAGMQWVRQAPGQGLEWMGWINTHSGVPKYAEDFKGRVTISADTSTSTAYLQLSSLKSEDTAVYYCARSGFGSSYWYFDVWGQGTLVTVSS VL: DIQMTQSPSSLSASVGDRVTITCKASQDVSTAVAWYQQKPGKAPKLLIYSASYRYTGVPSRFSGSGSGTDFTLTISSLQPEDFAVYYCQQHYITPLHFGQGTKLEIK
	binds	MYT11701 (antibody, V domains shown, IgG from supernatant; His at LCV position 95; also called datopotamab variant L3 07) VH: QVQLVQSGAEVKKPGASVKVSCKASGYTFTTAGMQWVRQAPGQGLEWMGWINTHSGVPKYAEDFKGRVTISADTSTSTAYLQLSSLKSEDTAVYYCARSGFGSSYWYFDVWGQGTLVTVSS VL: DIQMTQSPSSLSASVGDRVTITCKASQDVSTAVAWYQQKPGKAPKLLIYSASYRYTGVPSRFSGSGSGTDFTLTISSLQPEDFAVYYCQQHYITHLTFGQGTKLEIK
	binds	MYT11695 (antibody, V domains shown, IgG from supernatant; His at LCV position 89; also called datopotamab variant L3 01) VH: QVQLVQSGAEVKKPGASVKVSCKASGYTFTTAGMQWVRQAPGQGLEWMGWINTHSGVPKYAEDFKGRVTISADTSTSTAYLQLSSLKSEDTAVYYCARSGFGSSYWYFDVWGQGTLVTVSS VL: DIQMTQSPSSLSASVGDRVTITCKASQDVSTAVAWYQQKPGKAPKLLIYSASYRYTGVPSRFSGSGSGTDFTLTISSLQPEDFAVYYCHQHYITPLTFGQGTKLEIK
	binds	MYT11689 (antibody, V domains shown, IgG from supernatant; His at LCV position 51; also called datopotamab variant L2 02) VH: QVQLVQSGAEVKKPGASVKVSCKASGYTFTTAGMQWVRQAPGQGLEWMGWINTHSGVPKYAEDFKGRVTISADTSTSTAYLQLSSLKSEDTAVYYCARSGFGSSYWYFDVWGQGTLVTVSS VL: DIQMTQSPSSLSASVGDRVTITCKASQDVSTAVAWYQQKPGKAPKLLIYSHSYRYTGVPSRFSGSGSGTDFTLTISSLQPEDFAVYYCQQHYITPLTFGQGTKLEIK
	no binding (tested: 50 nM)	MYT11698 (antibody, V domains shown, IgG from supernatant; His at LCV position 92; also called datopotamab variant L3 04) VH: QVQLVQSGAEVKKPGASVKVSCKASGYTFTTAGMQWVRQAPGQGLEWMGWINTHSGVPKYAEDFKGRVTISADTSTSTAYLQLSSLKSEDTAVYYCARSGFGSSYWYFDVWGQGTLVTVSS VL: DIQMTQSPSSLSASVGDRVTITCKASQDVSTAVAWYQQKPGKAPKLLIYSASYRYTGVPSRFSGSGSGTDFTLTISSLQPEDFAVYYCQQHHITPLTFGQGTKLEIK
	binds	MYT11700 (antibody, V domains shown, IgG from supernatant; His at LCV position 94; also called datopotamab variant L3 06) VH: QVQLVQSGAEVKKPGASVKVSCKASGYTFTTAGMQWVRQAPGQGLEWMGWINTHSGVPKYAEDFKGRVTISADTSTSTAYLQLSSLKSEDTAVYYCARSGFGSSYWYFDVWGQGTLVTVSS VL: DIQMTQSPSSLSASVGDRVTITCKASQDVSTAVAWYQQKPGKAPKLLIYSASYRYTGVPSRFSGSGSGTDFTLTISSLQPEDFAVYYCQQHYIHPLTFGQGTKLEIK
	binds	MYT11696 (antibody, V domains shown, IgG from supernatant; His at LCV position 90; also called datopotamab variant L3 02) VH: QVQLVQSGAEVKKPGASVKVSCKASGYTFTTAGMQWVRQAPGQGLEWMGWINTHSGVPKYAEDFKGRVTISADTSTSTAYLQLSSLKSEDTAVYYCARSGFGSSYWYFDVWGQGTLVTVSS VL: DIQMTQSPSSLSASVGDRVTITCKASQDVSTAVAWYQQKPGKAPKLLIYSASYRYTGVPSRFSGSGSGTDFTLTISSLQPEDFAVYYCQHHYITPLTFGQGTKLEIK

The remaining lines, values behind:

Binder	binding result [1]	binding result [2]
MYT11756 (antibody, V domains shown, hu7E6SVG variant, His at LCV position 36 (L1 13); screened as IgG in Expi293 supernatant) VH: QVQLQESGPGLVKPSETLSLTCTVSGGSISSYGVHWIRQPPGKGLEWIGVIWTSGVTDYNSALMGRVTISVDTSKNQFSLKLSSVTAADTAVYYCARDGDYDRYTMDYWGQGTLVTVSS VL: DIVMTQSPDSLAVSLGERATINCRASKSVSTSGYSHMHWYQQKPGQPPKLLIYLASNLESGVPDRFSGSGSGTDFTLTISSLQAEDVAVYYCQHSRELPYTFGQGTKLEIK	binds	
MYT11758 (antibody, V domains shown, hu7E6SVG variant, Ala in place of His at LCV position 38 (L1 15); screened as IgG in Expi293 supernatant) VH: QVQLQESGPGLVKPSETLSLTCTVSGGSISSYGVHWIRQPPGKGLEWIGVIWTSGVTDYNSALMGRVTISVDTSKNQFSLKLSSVTAADTAVYYCARDGDYDRYTMDYWGQGTLVTVSS VL: DIVMTQSPDSLAVSLGERATINCRASKSVSTSGYSYMAWYQQKPGQPPKLLIYLASNLESGVPDRFSGSGSGTDFTLTISSLQAEDVAVYYCQHSRELPYTFGQGTKLEIK	binds	
MYT11759 (antibody, V domains shown, hu7E6SVG variant, His at LCV position 54 (L2 01); screened as IgG in Expi293 supernatant) VH: QVQLQESGPGLVKPSETLSLTCTVSGGSISSYGVHWIRQPPGKGLEWIGVIWTSGVTDYNSALMGRVTISVDTSKNQFSLKLSSVTAADTAVYYCARDGDYDRYTMDYWGQGTLVTVSS VL: DIVMTQSPDSLAVSLGERATINCRASKSVSTSGYSYMHWYQQKPGQPPKLLIYHASNLESGVPDRFSGSGSGTDFTLTISSLQAEDVAVYYCQHSRELPYTFGQGTKLEIK	binds	
MYT11760 (antibody, V domains shown, hu7E6SVG variant, His at LCV position 55 (L2 02); screened as IgG in Expi293 supernatant) VH: QVQLQESGPGLVKPSETLSLTCTVSGGSISSYGVHWIRQPPGKGLEWIGVIWTSGVTDYNSALMGRVTISVDTSKNQFSLKLSSVTAADTAVYYCARDGDYDRYTMDYWGQGTLVTVSS VL: DIVMTQSPDSLAVSLGERATINCRASKSVSTSGYSYMHWYQQKPGQPPKLLIYLHSNLESGVPDRFSGSGSGTDFTLTISSLQAEDVAVYYCQHSRELPYTFGQGTKLEIK	binds	
MYT11686 (antibody, V domains shown, IgG from supernatant; His at LCV position 33; also called datopotamab variant L1 10) VH: QVQLVQSGAEVKKPGASVKVSCKASGYTFTTAGMQWVRQAPGQGLEWMGWINTHSGVPKYAEDFKGRVTISADTSTSTAYLQLSSLKSEDTAVYYCARSGFGSSYWYFDVWGQGTLVTVSS VL: DIQMTQSPSSLSASVGDRVTITCKASQDVSTAHAWYQQKPGKAPKLLIYSASYRYTGVPSRFSGSGSGTDFTLTISSLQPEDFAVYYCQQHYITPLTFGQGTKLEIK		binds
MYT11697 (antibody, V domains shown, IgG from supernatant; Ala at LCV position 91 (starting residue His); also called datopotamab variant L3 03) VH: QVQLVQSGAEVKKPGASVKVSCKASGYTFTTAGMQWVRQAPGQGLEWMGWINTHSGVPKYAEDFKGRVTISADTSTSTAYLQLSSLKSEDTAVYYCARSGFGSSYWYFDVWGQGTLVTVSS VL: DIQMTQSPSSLSASVGDRVTITCKASQDVSTAVAWYQQKPGKAPKLLIYSASYRYTGVPSRFSGSGSGTDFTLTISSLQPEDFAVYYCQQAYITPLTFGQGTKLEIK		binds
MYT11692 (antibody, V domains shown, IgG from supernatant; His at LCV position 54; also called datopotamab variant L2 05) VH: QVQLVQSGAEVKKPGASVKVSCKASGYTFTTAGMQWVRQAPGQGLEWMGWINTHSGVPKYAEDFKGRVTISADTSTSTAYLQLSSLKSEDTAVYYCARSGFGSSYWYFDVWGQGTLVTVSS VL: DIQMTQSPSSLSASVGDRVTITCKASQDVSTAVAWYQQKPGKAPKLLIYSASYHYTGVPSRFSGSGSGTDFTLTISSLQPEDFAVYYCQQHYITPLTFGQGTKLEIK		binds
MYT11694 (antibody, V domains shown, IgG from supernatant; His at LCV position 56; also called datopotamab variant L2 07) VH: QVQLVQSGAEVKKPGASVKVSCKASGYTFTTAGMQWVRQAPGQGLEWMGWINTHSGVPKYAEDFKGRVTISADTSTSTAYLQLSSLKSEDTAVYYCARSGFGSSYWYFDVWGQGTLVTVSS VL: DIQMTQSPSSLSASVGDRVTITCKASQDVSTAVAWYQQKPGKAPKLLIYSASYRYHGVPSRFSGSGSGTDFTLTISSLQPEDFAVYYCQQHYITPLTFGQGTKLEIK		binds
MYT11693 (antibody, V domains shown, IgG from supernatant; His at LCV position 55; also called datopotamab variant L2 06) VH: QVQLVQSGAEVKKPGASVKVSCKASGYTFTTAGMQWVRQAPGQGLEWMGWINTHSGVPKYAEDFKGRVTISADTSTSTAYLQLSSLKSEDTAVYYCARSGFGSSYWYFDVWGQGTLVTVSS VL: DIQMTQSPSSLSASVGDRVTITCKASQDVSTAVAWYQQKPGKAPKLLIYSASYRHTGVPSRFSGSGSGTDFTLTISSLQPEDFAVYYCQQHYITPLTFGQGTKLEIK		binds
